This note sets out measurements from US20140087995A1 (published 2014).

Numbered stars: 1 amine (or outer) side, 2 acyl side, 3 side chain; on linkers, the order of the positions; unused ones are H or OH. Bridge positions count the residues as written; N and C are the ends. Side chains are listed from the residue outwards. Ends that are not written are not given here. * marks the point of attachment. C20 diacid = O=C(O)CCCCCCCCCCCCCCCCCCC(=O)*; γGlu = O=C(O)[C@H](CCC(=O)[*:2])N[*:1]; AEEA = NCCOCCOCC(=O)O

B1: N^ε1-[2-[2-[2-[[(4S)-4-carboxy-4-(19-carboxynonadecanoylamino)butanoyl]amino]ethoxy]ethoxy]acetyl]-[Gly14,Arg17,Pro21,Pro27,Pro31]-h-amylin (peptide)
peptide: K([AEEA-γGlu-C20 diacid])CNTATCATQRLAGFLRHSSPNFGAIPSSTPVGSNTY-NH2
modifications: disulfide 2-7; N-terminus assumed
SMILES: CC[C@H](C)[C@H](NC(=O)[C@H](C)NC(=O)CNC(=O)[C@H](Cc1ccccc1)NC(=O)[C@H](CC(N)=O)NC(=O)[C@@H]1CCCN1C(=O)[C@H](CO)NC(=O)[C@H](CO)NC(=O)[C@H](Cc1c[nH]cn1)NC(=O)[C@H](CCCNC(=N)N)NC(=O)[C@H](CC(C)C)NC(=O)[C@H](Cc1ccccc1)NC(=O)CNC(=O)[C@H](C)NC(=O)[C@H](CC(C)C)NC(=O)[C@H](CCCNC(=N)N)NC(=O)[C@H](CCC(N)=O)NC(=O)[C@@H](NC(=O)[C@H](C)NC(=O)[C@@H]1CSSC[C@H](NC(=O)[C@@H](N)CCCCNC(=O)COCCOCCNC(=O)CC[C@H](NC(=O)CCCCCCCCCCCCCCCCCCC(=O)O)C(=O)O)C(=O)N[C@@H](CC(N)=O)C(=O)N[C@@H]([C@@H](C)O)C(=O)N[C@@H](C)C(=O)N[C@@H]([C@@H](C)O)C(=O)N1)[C@@H](C)O)C(=O)N1CCC[C@H]1C(=O)N[C@@H](CO)C(=O)N[C@@H](CO)C(=O)N[C@H](C(=O)N1CCC[C@H]1C(=O)N[C@H](C(=O)NCC(=O)N[C@@H](CO)C(=O)N[C@@H](CC(N)=O)C(=O)N[C@H](C(=O)N[C@@H](Cc1ccc(O)cc1)C(N)=O)[C@@H](C)O)C(C)C)[C@@H](C)O
notes: also called compound 71
B2: N^ε1-[2-[2-[2-[[(4S)-4-carboxy-4-(19-carboxynonadecanoylamino)butanoyl]amino]ethoxy]ethoxy]acetyl]-[His14,Arg17,Pro21,Pro27]-h-amylin (peptide)
peptide: K([AEEA-γGlu-C20 diacid])CNTATCATQRLAHFLRHSSPNFGAIPSSTNVGSNTY-NH2
modifications: disulfide 2-7; N-terminus assumed
SMILES: CC[C@H](C)[C@H](NC(=O)[C@H](C)NC(=O)CNC(=O)[C@H](Cc1ccccc1)NC(=O)[C@H](CC(N)=O)NC(=O)[C@@H]1CCCN1C(=O)[C@H](CO)NC(=O)[C@H](CO)NC(=O)[C@H](Cc1c[nH]cn1)NC(=O)[C@H](CCCNC(=N)N)NC(=O)[C@H](CC(C)C)NC(=O)[C@H](Cc1ccccc1)NC(=O)[C@H](Cc1c[nH]cn1)NC(=O)[C@H](C)NC(=O)[C@H](CC(C)C)NC(=O)[C@H](CCCNC(=N)N)NC(=O)[C@H](CCC(N)=O)NC(=O)[C@@H](NC(=O)[C@H](C)NC(=O)[C@@H]1CSSC[C@H](NC(=O)[C@@H](N)CCCCNC(=O)COCCOCCNC(=O)CC[C@H](NC(=O)CCCCCCCCCCCCCCCCCCC(=O)O)C(=O)O)C(=O)N[C@@H](CC(N)=O)C(=O)N[C@@H]([C@@H](C)O)C(=O)N[C@@H](C)C(=O)N[C@@H]([C@@H](C)O)C(=O)N1)[C@@H](C)O)C(=O)N1CCC[C@H]1C(=O)N[C@@H](CO)C(=O)N[C@@H](CO)C(=O)N[C@H](C(=O)N[C@@H](CC(N)=O)C(=O)N[C@H](C(=O)NCC(=O)N[C@@H](CO)C(=O)N[C@@H](CC(N)=O)C(=O)N[C@H](C(=O)N[C@@H](Cc1ccc(O)cc1)C(N)=O)[C@@H](C)O)C(C)C)[C@@H](C)O
notes: also called compound 69
B3: N^ε1-[2-[2-[2-[[(4S)-4-carboxy-4-(19-carboxynonadecanoylamino)butanoyl]amino]ethoxy]ethoxy]acetyl]-[Ser14,Arg17,Pro21,Pro27,Pro31]-h-amylin (peptide)
peptide: K([AEEA-γGlu-C20 diacid])CNTATCATQRLASFLRHSSPNFGAIPSSTPVGSNTY-NH2
modifications: disulfide 2-7; N-terminus assumed
SMILES: CC[C@H](C)[C@H](NC(=O)[C@H](C)NC(=O)CNC(=O)[C@H](Cc1ccccc1)NC(=O)[C@H](CC(N)=O)NC(=O)[C@@H]1CCCN1C(=O)[C@H](CO)NC(=O)[C@H](CO)NC(=O)[C@H](Cc1c[nH]cn1)NC(=O)[C@H](CCCNC(=N)N)NC(=O)[C@H](CC(C)C)NC(=O)[C@H](Cc1ccccc1)NC(=O)[C@H](CO)NC(=O)[C@H](C)NC(=O)[C@H](CC(C)C)NC(=O)[C@H](CCCNC(=N)N)NC(=O)[C@H](CCC(N)=O)NC(=O)[C@@H](NC(=O)[C@H](C)NC(=O)[C@@H]1CSSC[C@H](NC(=O)[C@@H](N)CCCCNC(=O)COCCOCCNC(=O)CC[C@H](NC(=O)CCCCCCCCCCCCCCCCCCC(=O)O)C(=O)O)C(=O)N[C@@H](CC(N)=O)C(=O)N[C@@H]([C@@H](C)O)C(=O)N[C@@H](C)C(=O)N[C@@H]([C@@H](C)O)C(=O)N1)[C@@H](C)O)C(=O)N1CCC[C@H]1C(=O)N[C@@H](CO)C(=O)N[C@@H](CO)C(=O)N[C@H](C(=O)N1CCC[C@H]1C(=O)N[C@H](C(=O)NCC(=O)N[C@@H](CO)C(=O)N[C@@H](CC(N)=O)C(=O)N[C@H](C(=O)N[C@@H](Cc1ccc(O)cc1)C(N)=O)[C@@H](C)O)C(C)C)[C@@H](C)O
notes: also called compound 73
B4: N^ε1-[2-[2-[2-[[(4S)-4-carboxy-4-(19-carboxynonadecanoylamino)butanoyl]amino]ethoxy]ethoxy]acetyl]-[His14,Arg17,Pro21,Pro27,Pro31]-h-amylin (peptide)
peptide: K([AEEA-γGlu-C20 diacid])CNTATCATQRLAHFLRHSSPNFGAIPSSTPVGSNTY-NH2
modifications: disulfide 2-7; N-terminus assumed
SMILES: CC[C@H](C)[C@H](NC(=O)[C@H](C)NC(=O)CNC(=O)[C@H](Cc1ccccc1)NC(=O)[C@H](CC(N)=O)NC(=O)[C@@H]1CCCN1C(=O)[C@H](CO)NC(=O)[C@H](CO)NC(=O)[C@H](Cc1c[nH]cn1)NC(=O)[C@H](CCCNC(=N)N)NC(=O)[C@H](CC(C)C)NC(=O)[C@H](Cc1ccccc1)NC(=O)[C@H](Cc1c[nH]cn1)NC(=O)[C@H](C)NC(=O)[C@H](CC(C)C)NC(=O)[C@H](CCCNC(=N)N)NC(=O)[C@H](CCC(N)=O)NC(=O)[C@@H](NC(=O)[C@H](C)NC(=O)[C@@H]1CSSC[C@H](NC(=O)[C@@H](N)CCCCNC(=O)COCCOCCNC(=O)CC[C@H](NC(=O)CCCCCCCCCCCCCCCCCCC(=O)O)C(=O)O)C(=O)N[C@@H](CC(N)=O)C(=O)N[C@@H]([C@@H](C)O)C(=O)N[C@@H](C)C(=O)N[C@@H]([C@@H](C)O)C(=O)N1)[C@@H](C)O)C(=O)N1CCC[C@H]1C(=O)N[C@@H](CO)C(=O)N[C@@H](CO)C(=O)N[C@H](C(=O)N1CCC[C@H]1C(=O)N[C@H](C(=O)NCC(=O)N[C@@H](CO)C(=O)N[C@@H](CC(N)=O)C(=O)N[C@H](C(=O)N[C@@H](Cc1ccc(O)cc1)C(N)=O)[C@@H](C)O)C(C)C)[C@@H](C)O
notes: also called compound 61
B5: N^ε1-[2-[2-[2-[[(4S)-4-carboxy-4-(19-carboxynonadecanoylamino)butanoyl]amino]ethoxy]ethoxy]acetyl]-[Lys14,Arg17,Pro21,Pro27,Pro31]-h-amylin (peptide)
peptide: K([AEEA-γGlu-C20 diacid])CNTATCATQRLAKFLRHSSPNFGAIPSSTPVGSNTY-NH2
modifications: disulfide 2-7; N-terminus assumed
SMILES: CC[C@H](C)[C@H](NC(=O)[C@H](C)NC(=O)CNC(=O)[C@H](Cc1ccccc1)NC(=O)[C@H](CC(N)=O)NC(=O)[C@@H]1CCCN1C(=O)[C@H](CO)NC(=O)[C@H](CO)NC(=O)[C@H](Cc1c[nH]cn1)NC(=O)[C@H](CCCNC(=N)N)NC(=O)[C@H](CC(C)C)NC(=O)[C@H](Cc1ccccc1)NC(=O)[C@H](CCCCN)NC(=O)[C@H](C)NC(=O)[C@H](CC(C)C)NC(=O)[C@H](CCCNC(=N)N)NC(=O)[C@H](CCC(N)=O)NC(=O)[C@@H](NC(=O)[C@H](C)NC(=O)[C@@H]1CSSC[C@H](NC(=O)[C@@H](N)CCCCNC(=O)COCCOCCNC(=O)CC[C@H](NC(=O)CCCCCCCCCCCCCCCCCCC(=O)O)C(=O)O)C(=O)N[C@@H](CC(N)=O)C(=O)N[C@@H]([C@@H](C)O)C(=O)N[C@@H](C)C(=O)N[C@@H]([C@@H](C)O)C(=O)N1)[C@@H](C)O)C(=O)N1CCC[C@H]1C(=O)N[C@@H](CO)C(=O)N[C@@H](CO)C(=O)N[C@H](C(=O)N1CCC[C@H]1C(=O)N[C@H](C(=O)NCC(=O)N[C@@H](CO)C(=O)N[C@@H](CC(N)=O)C(=O)N[C@H](C(=O)N[C@@H](Cc1ccc(O)cc1)C(N)=O)[C@@H](C)O)C(C)C)[C@@H](C)O
notes: also called compound 74
B6: N^ε1-[2-[2-[2-[[(4S)-4-carboxy-4-(19-carboxynonadecanoylamino)butanoyl]amino]ethoxy]ethoxy]acetyl]-[His14,Arg17,Pro21,Pro27,Pro34]-h-amylin (peptide)
peptide: K([AEEA-γGlu-C20 diacid])CNTATCATQRLAHFLRHSSPNFGAIPSSTNVGPNTY-NH2
modifications: disulfide 2-7; N-terminus assumed
SMILES: CC[C@H](C)[C@H](NC(=O)[C@H](C)NC(=O)CNC(=O)[C@H](Cc1ccccc1)NC(=O)[C@H](CC(N)=O)NC(=O)[C@@H]1CCCN1C(=O)[C@H](CO)NC(=O)[C@H](CO)NC(=O)[C@H](Cc1c[nH]cn1)NC(=O)[C@H](CCCNC(=N)N)NC(=O)[C@H](CC(C)C)NC(=O)[C@H](Cc1ccccc1)NC(=O)[C@H](Cc1c[nH]cn1)NC(=O)[C@H](C)NC(=O)[C@H](CC(C)C)NC(=O)[C@H](CCCNC(=N)N)NC(=O)[C@H](CCC(N)=O)NC(=O)[C@@H](NC(=O)[C@H](C)NC(=O)[C@@H]1CSSC[C@H](NC(=O)[C@@H](N)CCCCNC(=O)COCCOCCNC(=O)CC[C@H](NC(=O)CCCCCCCCCCCCCCCCCCC(=O)O)C(=O)O)C(=O)N[C@@H](CC(N)=O)C(=O)N[C@@H]([C@@H](C)O)C(=O)N[C@@H](C)C(=O)N[C@@H]([C@@H](C)O)C(=O)N1)[C@@H](C)O)C(=O)N1CCC[C@H]1C(=O)N[C@@H](CO)C(=O)N[C@@H](CO)C(=O)N[C@H](C(=O)N[C@@H](CC(N)=O)C(=O)N[C@H](C(=O)NCC(=O)N1CCC[C@H]1C(=O)N[C@@H](CC(N)=O)C(=O)N[C@H](C(=O)N[C@@H](Cc1ccc(O)cc1)C(N)=O)[C@@H](C)O)C(C)C)[C@@H](C)O
notes: also called compound 68

One assay has as its target T1, human calcitonin receptor (human, UniProt P30988 25-474).
T1 sequence (looked up): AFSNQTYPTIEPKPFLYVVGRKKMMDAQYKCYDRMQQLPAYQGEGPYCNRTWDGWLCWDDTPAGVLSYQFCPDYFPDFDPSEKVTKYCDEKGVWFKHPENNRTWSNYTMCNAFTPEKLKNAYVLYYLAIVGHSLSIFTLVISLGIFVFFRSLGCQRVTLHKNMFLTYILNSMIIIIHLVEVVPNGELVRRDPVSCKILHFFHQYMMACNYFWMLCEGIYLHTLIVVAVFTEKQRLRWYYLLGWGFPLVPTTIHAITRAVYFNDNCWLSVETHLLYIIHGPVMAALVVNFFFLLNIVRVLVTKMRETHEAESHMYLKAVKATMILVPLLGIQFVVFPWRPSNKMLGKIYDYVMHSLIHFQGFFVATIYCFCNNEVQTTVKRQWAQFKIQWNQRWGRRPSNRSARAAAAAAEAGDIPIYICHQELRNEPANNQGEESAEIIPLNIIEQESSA
As to the kind of experiment: cell-based or functional assay.
As to B1, the “Ratio hCT/hAmylin funct. (hCTR EC50 against hAmylin-R EC50)” value amounted to 9.4 and the “hCTR funct. EC50” value worked out at 0.527 nM.

As to B2, the “Ratio hCT/hAmylin funct. (hCTR EC50 against hAmylin-R EC50)” value worked out at 13.3 and the “hCTR funct. EC50” value was determined as 1.25 nM.

Turning to B3, the “Ratio hCT/hAmylin funct. (hCTR EC50 against hAmylin-R EC50)” value came to 11.3 and the “hCTR funct. EC50” value stood at 0.961 nM.

For B4, the “Ratio hCT/hAmylin funct. (hCTR EC50 against hAmylin-R EC50)” value was 10.9 and the “hCTR funct. EC50” value was found to be 0.554 nM.

With B5, the “Ratio hCT/hAmylin funct. (hCTR EC50 against hAmylin-R EC50)” value is 56.3 and the “hCTR funct. EC50” value was 37.5 nM.

On to B6, for which the “Ratio hCT/hAmylin funct. (hCTR EC50 against hAmylin-R EC50)” value was 17.4 and the “hCTR funct. EC50” value was determined as 0.932 nM.

The next assay addresses T2, human amylin receptor (amylin 3(a) receptor: human calcitonin receptor co-expressed with RAMP-3) (human, UniProt P30988 25-474; O60896 24-148, limits assumed).
T2 sequence (looked up) 1: T1 sequence (looked up)
T2 sequence (looked up) 2: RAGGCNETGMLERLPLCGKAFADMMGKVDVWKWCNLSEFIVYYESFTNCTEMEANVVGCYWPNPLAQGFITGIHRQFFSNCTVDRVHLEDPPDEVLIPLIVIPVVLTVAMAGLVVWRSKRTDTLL
As to the kind of experiment: cell-based or functional assay.
With B1, the “hAmylin-R funct. EC50” value amounted to 0.056 nM.

Turning to B2, the “hAmylin-R funct. EC50” value was determined as 0.094 nM.

For the molecule B3, the “hAmylin-R funct. EC50” value was 0.085 nM.

As to B4, the “hAmylin-R funct. EC50” value amounted to 0.051 nM.

Turning to B5, the “hAmylin-R funct. EC50” value was 0.666 nM.

For the molecule B6, the “hAmylin-R funct. EC50” value amounted to 0.054 nM.
